According to patent publication US20160362476:

Target: T1, phiC31 integrase (Streptomyces phage phiC31) (UniProt Q9T221)
T1 sequence: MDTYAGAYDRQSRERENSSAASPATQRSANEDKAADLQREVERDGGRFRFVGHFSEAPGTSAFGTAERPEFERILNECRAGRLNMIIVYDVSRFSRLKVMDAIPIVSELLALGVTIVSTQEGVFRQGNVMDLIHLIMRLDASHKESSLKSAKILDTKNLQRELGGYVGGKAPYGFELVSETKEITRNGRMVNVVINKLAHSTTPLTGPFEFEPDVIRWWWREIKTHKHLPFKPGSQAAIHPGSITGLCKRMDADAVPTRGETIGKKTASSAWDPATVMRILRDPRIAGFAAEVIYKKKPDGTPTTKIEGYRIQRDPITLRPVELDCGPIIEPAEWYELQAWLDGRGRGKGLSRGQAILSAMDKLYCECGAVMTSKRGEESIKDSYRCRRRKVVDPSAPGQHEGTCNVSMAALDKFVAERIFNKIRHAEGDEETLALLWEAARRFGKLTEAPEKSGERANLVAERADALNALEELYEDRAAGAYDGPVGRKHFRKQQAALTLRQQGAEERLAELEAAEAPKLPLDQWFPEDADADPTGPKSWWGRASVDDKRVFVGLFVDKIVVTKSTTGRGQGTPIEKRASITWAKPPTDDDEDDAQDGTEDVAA
Experiment: cell_activity

| Substance | activity (recombination partner of attP in E. coli TG1, camR selection) | activity (co-integration of pDonor attP with pAcceptor attB in E. coli TG1, camR/ampR ratio versus already co-integrated plasmid) |
| --- | --- | --- |
| GGTGCCAGGGCGTGCCCTTGGGCTCCCCGGGCGCGTACTGAANTATACAAA (double strand) [phiC31 attB (36 bp, in pAcceptor 5' of promoterless camR)] | > 90% |  |
| phiC31 attP (36 bp, used as scFv linker in pDonor) |  | > 90% |
